From patent publication US20150293026A1, “Automated system for tissue histomorphometry” (priority 2010, published 2015)

Tested on: mineralizing bone surface and GFP labeled osteoblast surface of long bones (femur)
Test: Automated bone histomorphometry of femur trabecula in PTH treated GFP reporter mice
Format: in vivo
Settings: for AC measurements CL (common surface area of GFP marked osteoblast and AC stained label/bone surface area) / AC measurements NCL (surface area of AC stained label only/bone surface area) / AC measurements TL (total AC stained label area/bone surface area) / GFP measurements CL / GFP measurements NCL / GFP measurements TL: femur trabecula, day 7, mean
Experimental: The combination of image analysis techniques (registration, segmentation, smoothing and thresh-holding) is amenable to automating histomorphometry analysis. We have used long bones (femur) of PTH treated, skeletally mature mice (8˜9 month old) whose transgenic expression of Col3.6GFP or Col2.3GFP is expected to be uniformly low. Each study had 2 groups of treatment experiments, one that is PTH treated and one that is vehicle (0.001 N HCl containing 1 mg/ml BSA) treated. Each treated study was terminated 1 day after 2 days, 3 days, and 7 days dose of treatment has been administered. A single red fluorochrome label (AC, alizarin complexone, 30 mg/Kg IP) has been administered concurrently with the final PTH dose approximately 24 hours prior to end of each study. The experimental quantification includes GFP labeled osteoblast surface, mineralizing bone surface and total bone surface.
We need to measure both the AC stained label areas and GFP marked osteoblast areas that are commonly related to the same bone surface region. Often, the distance between the AC stained labels and the GFP marked osteoblast are not uniform, and sometimes they may be located far away. Our approach is to find the reference bone surfaces first, and then move the related AC stained labels and GFP marked osteoblast onto the reference bone surfaces using morphological transformation. FIG. 7(b) is the transformed image of FIG. 7(a). The red and green colors show, respectively, the AC stained labels and the GFP marked osteoblast on the bone surface. The yellow color is introduced to represent the common areas of AC stained labels and GFP marked osteoblast. From this projected image, we are able to calculate the ratios of the AC stained labels and GFP marked osteoblast of interest.
Here PTH treated and vehicle treated studies use poBCol3.6GFP-Tpz and pOBCol2.3GFP-Emd, respectively, where the former is control and the latter is test. The measurement follows the bone volume measurement guideline presented in [Parfitt et al., 1987]. In Table 3, the following notations are used and each measurement is the percentage of 2D perimeter measurement over the total 2D bone surface area (Red=AC measurements, Cyan=GFP measurements).
TL=total AC stained label area/bone surface area; CL=common surface area of the GFP marked osteoblast and AC stained label/bone surface area; NCL=surface area of the AC stained label only/bone surface area; TG=total surface area of the green GFP marked osteoblast/bone surface area; GL=common surface area of the GFP marked osteoblast and AC stained label/bone surface area; NGL=surface area of the GFP marked osteoblast only/bone surface area.

B1: PTH: PTH given to skeletally mature transgenic GFP reporter mice for 2, 3 or 7 days; anticipated bone-forming effect (peptide, UniProt P01270 32-115, looked up)
Parathyroid hormone: SVSEIQLMHNLGKHLNSMERVEWLRKKLQDVHNFVALGAPLAPRDAGSQRPRKKEDNVLVESHEKSLGEADKADVNVLTKAKSQ
modifications: Parathyroid hormone
- AC measurements CL (common surface area of GFP marked osteoblast and AC stained label/bone surface area) (Col 2.3-Emd mice): 3.82%
- AC measurements NCL (surface area of AC stained label only/bone surface area) (Col 2.3-Emd mice): 12.65%
- AC measurements TL (total AC stained label area/bone surface area) (Col 2.3-Emd mice): 16.48%
- GFP measurements CL (Col 2.3-Emd mice): 3.82%
- GFP measurements NCL (Col 2.3-Emd mice): 8.00%
- GFP measurements TL (Col 2.3-Emd mice): 11.83%
- AC measurements CL (common surface area of GFP marked osteoblast and AC stained label/bone surface area) (Col 3.6-Tpz mice): 5.47%
- AC measurements NCL (surface area of AC stained label only/bone surface area) (Col 3.6-Tpz mice): 25.48%
- AC measurements TL (total AC stained label area/bone surface area) (Col 3.6-Tpz mice): 31.23%
- GFP measurements CL (Col 3.6-Tpz mice): 5.74%
- GFP measurements NCL (Col 3.6-Tpz mice): 4.24%
- GFP measurements TL (Col 3.6-Tpz mice): 9.99%
- calcified bone areas (TL), PTH treated case compared with vehicle treated case (day 7, in words): more calcified bone areas (TL)
- number of GFP marked osteoblast (TG), PTH treated case compared with vehicle treated case (day 7, in words): more
